Data from doi:10.1101/2020.09.30.319905.
Values joined by “and” are separate entries in the source; they are usually repeats but may differ in a detail not shown here. Equal entries are not always repeated.

How the values were obtained:
[1] = target: Truncated ApoE3, residues 80-255 (central helical repeat segment) (human) (UniProt P02649); assay: cross-linking
[2] = target: Truncated ApoE3, residues 80-255 (central helical repeat segment) (human) (UniProt P02649); assay: SAXS

In the case of “Truncated ApoE3, residues 80-255 (central helical repeat segment) (from UniProt P02649 80-255) (domain or fragment)”, the stoichiometry N [1] is reported as 2 and 3 and the stoichiometry N [2] is reported as 4.
